Test [1] has as its target T1, human LTBR endogenously expressed on cells (HepG2, A549, A375, HCC1187, RPMI-7951, primary human breast CAFs) (human, UniProt P36941 31-435). Nature of the test: cell-based or functional assay.
Test [2] deals with T1, human LTBR endogenously expressed on …. Nature of the test: flow cytometry, A375 cells. As for the experimental part: For binding to LTBR-positive cells, the A375 tumor cell line was used. At the same time, binding to LTBR-negative HEK293 cells was tested to confirm specificity. In short, the cells were resuspended in the FACS binding buffer, and live/dead efluro450 viability dye was added at a 1:1000 dilution to the cell suspension, followed by incubation at room temperature in the dark for 30 minutes. The cells were then diluted to 2 e5/ml, and 100 ul was added to wells of a 96-well U-bottom plate as required. […] The cells were pelleted by centrifugation, and the supernatant was discarded, followed by the addition of a series of dilutions of anti-LTBR antibodies and incubation for 45 minutes at 4 C in the dark. Cells were washed two times with PBS with 3% (w/v) BSA before adding 60 ul of fluorescently labelled secondary antibody (goat anti-human IgG) diluted to 1:200 in PBS. Incubation continued at 4 C for at least 30 minutes, followed by two washes in PBS pH 7.4. Cells were either fixed with 2% PFA (30 minutes at 4 C) followed by washout and storage in 100 ul of PBS or immediately analysed on a Flow Cytometer. The data were analysed using FloJo V10 and GraphPad Prism. No binding to the HEK cell line was detected for any tested clones, confirming the specific interaction between anti-LTBR antibodies and LTBR receptor. The results are summarised in.

Test [3] concerns the target T2, cyno LTBR His (R&D), recombinant protein (cynomolgus (Macaca fascicularis), UniProt P36941 31-227 (human entry), limits assumed).
T2 construct: bought protein used as analyte on Carterra LSA
Nature of the test: SPR (Carterra LSA), antibody captured by anti-human Fc, LTBR as analyte. As for the experimental part: (§1) The binding of anti-LTBR antibodies to human and cynomolgus LTBR was investigated by Surface Plasmon Resonance (SPR) on Carterra LSA. An EC30M chip was used to capture the test antibodies. Activation with EDC and sNHS occurred in MES pH 5.5 to prepare the chip for amine coupling. Goat anti-human IgG Fc antibody was then captured to the chip via incubation for 10 minutes. Excess conjugation sites were quenched with 1M Ethanolamine pH 8. To measure monovalent binding kinetics, antibodies were printed/spotted onto the chip and allowed to bind to the goat antibody, followed by subsequent washing. After the preparation, the printed chip was exposed to repeated rounds of association and dissociation with increasing analyte concentrations. In this work, recombinant proteins (Human LTBR (Acro) or cyno LTBR His (R&D)) were serially diluted across a range starting at 1500 nM with 3-fold dilutions and 10 points. The curves were fitted to global fit in a 1:1 binding model to obtain KD values. The binding affinity to both species is reported.

The target of test [4] is Human LTBR (Acro), recombinant protein (human, UniProt P36941 31-227, limits assumed). Described as above. The method, then: as §1
Human LTBR (Acro), recombinant protein, sequence (P36941 31-227 limits assumed): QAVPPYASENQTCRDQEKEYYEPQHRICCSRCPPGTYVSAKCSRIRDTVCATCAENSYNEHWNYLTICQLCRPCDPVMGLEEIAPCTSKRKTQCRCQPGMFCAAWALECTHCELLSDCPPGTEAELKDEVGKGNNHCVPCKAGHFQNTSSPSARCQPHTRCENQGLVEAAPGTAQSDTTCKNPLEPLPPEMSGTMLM
Test [5] deals with T1, human LTBR endogenously expressed on …. Nature of the test: cell-based or functional assay. The source holds these as a separate data set.
For test [6] the target is unchanged. Nature of the test: cell-based or functional assay. This is another data set of the same source.
In test [7] the target is mouse LTBR on cells (4T1 tumor cell line; primary mouse lung fibroblasts) (mouse, UniProt P50284 31-415). Nature of the test: cell-based or functional assay.
mouse LTBR on cells (4T1 tumor cell line; primary mouse lung fibroblasts), sequence (P50284 31-415): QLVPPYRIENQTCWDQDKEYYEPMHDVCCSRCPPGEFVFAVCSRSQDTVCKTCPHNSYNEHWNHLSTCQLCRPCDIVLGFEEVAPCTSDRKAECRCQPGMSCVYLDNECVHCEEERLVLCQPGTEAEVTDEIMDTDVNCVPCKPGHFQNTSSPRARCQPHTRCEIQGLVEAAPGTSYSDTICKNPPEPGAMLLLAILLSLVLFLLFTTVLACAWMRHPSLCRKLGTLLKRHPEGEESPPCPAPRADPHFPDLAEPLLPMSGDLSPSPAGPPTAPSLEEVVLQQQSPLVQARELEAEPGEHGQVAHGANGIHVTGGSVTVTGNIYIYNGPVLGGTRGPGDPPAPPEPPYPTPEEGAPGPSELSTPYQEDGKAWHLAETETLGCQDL

T1 sequence (P36941 31-435): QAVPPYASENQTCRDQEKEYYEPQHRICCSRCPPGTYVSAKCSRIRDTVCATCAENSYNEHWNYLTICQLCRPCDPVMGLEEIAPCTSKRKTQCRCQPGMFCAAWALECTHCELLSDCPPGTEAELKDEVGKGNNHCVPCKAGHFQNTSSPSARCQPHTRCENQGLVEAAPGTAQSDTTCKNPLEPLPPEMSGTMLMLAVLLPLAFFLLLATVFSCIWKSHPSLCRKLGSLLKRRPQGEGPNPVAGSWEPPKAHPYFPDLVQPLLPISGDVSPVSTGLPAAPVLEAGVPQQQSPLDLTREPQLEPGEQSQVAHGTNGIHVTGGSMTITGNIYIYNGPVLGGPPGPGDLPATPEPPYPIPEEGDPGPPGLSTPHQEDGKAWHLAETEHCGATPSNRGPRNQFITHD
T2 sequence (P36941 other isoform, or with tags, fused parts or gaps limits assumed): as the sequence (P36941 31-227 limits assumed) above, with A2V, A7G, Q24R, I45S, N163D, K181R, L184S, P186S counted along it

B1: Clone 2.3 (antibody, V domains shown)
VH: EVQLVESGGGLVQPGGSLRLSCAASGFTFSSYAMSWVRQAPGKGLEWVSGISGSGGRTNYADSVKGRFTISRDNSKNTLYLQMNSLRAEDTAVYYCAKSDNWHYLDAFDIWGQGTMVTVSS
VL: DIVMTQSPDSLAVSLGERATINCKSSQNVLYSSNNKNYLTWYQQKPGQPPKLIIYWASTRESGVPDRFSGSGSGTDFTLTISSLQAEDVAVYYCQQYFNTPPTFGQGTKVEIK
notes: anti-LTBR mAb (bivalent)
In general, EC50 refers to the concentration at which the effect is half-maximal. A lower EC50 goes with greater potency. What is called Kd is the free concentration of one partner at which half of the binding sites on the other are occupied at equilibrium, for simple one-to-one binding. For B1, in test [1], the “HepG2 reporter assay EC50 (w/o cross-linking antibody)” value came to 130 pM and the “HepG2 reporter assay EC50 (with cross-linking antibody)” value amounted to 43 pM. The 50% effective concentration (EC50) in test [2] came out at 660 pM. Moreover, the dissociation constant Kd in test [3] is 390 pM. Further, in test [4], the Kd worked out at 580 pM.

B2: Clone 2.2 (antibody, V domains shown)
VH: EVQLVESGGGLVKPGGSLRLSCAASRFTFSSYSMNWVRQAPGKGLEWVSSISPSSSYIYYADSVKGRFTISRDNAKNSLYLQMNSLRAEDTAVYYCARDHYNWNFDALDIWGQGTMVTVSS
VL: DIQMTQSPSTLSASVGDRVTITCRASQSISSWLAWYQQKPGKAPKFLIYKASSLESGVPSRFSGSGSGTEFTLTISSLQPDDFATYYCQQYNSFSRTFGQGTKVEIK
notes: anti-LTBR mAb (bivalent)
With B2, the “HepG2 reporter assay EC50 (w/o cross-linking antibody)” value in test [1] was determined as 17000 pM. Also, the “HepG2 reporter assay EC50 (with cross-linking antibody)” value in test [1] was 190 pM. Further, the EC50 in test [2] came to 720 pM. The equilibrium dissociation constant (Kd) in test [3] turned out to be 710 pM; in test [4], 560 pM.

B3: Clone 2.1 (antibody, V domains shown)
VH: EVQLVESGGGLVKPGGSLRLSCAASGFTFSSYCMNWVRQAPGKGLEWVSSISTGNTYIYYSDSVKGRFTISRDNAKNSLYLQMNSLRAEDTAVYYCARARYNWNYDAFDIWGQGTMVTVSS
VL: DIQMTQSPSSLSASIGDRVTITCQASQDISNFLSWYQQKPGKAPNLLIFDASNLETGVPSRFSESGSGTDFSFTITSLQPEDIATYYCQQYYNVPLTFGGGTKVEIK
notes: anti-LTBR mAb (bivalent)
For B3, in test [1], the “HepG2 reporter assay EC50 (with cross-linking antibody)” value worked out at 160 pM. In test [2], this molecule showed an EC50 of 1000 pM. The Kd came to 260 pM in test [3] and 250 pM in test [4].

B4: Clone 2.7 (antibody, V domains shown)
VH: EVQLVESGGGLVQPGGSLRLSCAASGFIFDDYDMHWVRQAPGKGLEWVSGINWNSNRVDYADSVKGRFTISRDNARNSLYLQMNSLRPEDTAFYYCVKDKTSSWYVFDSWGQGTPVTVSS
VL: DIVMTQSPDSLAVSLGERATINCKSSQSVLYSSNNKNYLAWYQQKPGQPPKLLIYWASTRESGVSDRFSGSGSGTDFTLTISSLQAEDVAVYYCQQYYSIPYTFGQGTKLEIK
notes: anti-LTBR mAb (bivalent)
Consider B4, for which, in test [1], the “HepG2 reporter assay EC50 (w/o cross-linking antibody)” value came to 170 pM and the “HepG2 reporter assay EC50 (with cross-linking antibody)” value was determined as 180 pM. Moreover, the EC50 in test [2] is 9500 pM. The Kd in test [3] came to 1300 pM. For the same molecule, the Kd in test [4] is 4300 pM.

B5: Clone 2.4 (antibody, V domains shown)
VH: QVQLVESGGGVVQPGRSLRLSCAASGFTFSSYGIHWVRQAPGKGLEWVAVIWYDGSNKYYADSVKGRFTISRDNSKNTLYLQMNSLRAEDTAVYYCARDGGTGNYYYMDVWGKGTTVTVSS
VL: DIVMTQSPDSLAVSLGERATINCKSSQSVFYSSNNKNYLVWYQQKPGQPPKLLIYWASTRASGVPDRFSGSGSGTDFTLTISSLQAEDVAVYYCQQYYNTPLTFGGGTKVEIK
notes: anti-LTBR mAb (bivalent)
Take B5: the “HepG2 reporter assay EC50 (with cross-linking antibody)” value in test [1] was 90 pM. Moreover, the Kd was found to be 53000 pM in test [3] and 36000 pM in test [4].

B6: Clone 2.6 (antibody, V domains shown)
VH: QVQLVQSGTEMKKPGASVKVSCKASGYTFSSYDISWVRQAPGQGLEWMGWFSAYNGNSNYAQKFQGRVTMTTDTSTNTAYMELRSLRSDDTAVYYCAREGYYGNSGFFDYWGQGTLVTVSS
VL: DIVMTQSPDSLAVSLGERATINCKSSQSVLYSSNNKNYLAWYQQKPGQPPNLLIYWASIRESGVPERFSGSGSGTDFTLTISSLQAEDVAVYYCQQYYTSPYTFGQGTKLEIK
notes: anti-LTBR mAb (bivalent)
With B6, in test [1], the “HepG2 reporter assay EC50 (w/o cross-linking antibody)” value was found to be 73 pM and the “HepG2 reporter assay EC50 (with cross-linking antibody)” value came out at 100 pM. The molecule also came in with an EC50 in test [2] of 3500 pM. In addition, the Kd in test [3] turned out to be 24 pM. For the same molecule, in test [4], the dissociation constant (Kd) worked out at 180 pM.

B7: Clone 4.10 (bispecific antibody, human IgG1, kappa, L234A L235A)
heavy 1: not shown
heavy 2: EVQLVESGGGLVKPGGSLRLSCVASGFTFSLAWMNWVRQAPGKGLEWVGHIKSRADGGSTDYAAPVKGRFTISRDDSKNTLYLHMNSLKTEDTAVYFCSRFYWNYVLDYWGQGTLVTVSSASTKGPSVFPLAPSSKSTSGGTAALGCLVKDYFPEPVTVSWNSGALTSGVHTFPAVLQSSGLYSLSSVVTVPSSSLGTQTYICNVNHKPSNTKVDKKVEPKSCDKTHTCPPCPAPEAAGGPSVFLFPPKPKDTLMISRTPEVTCVVVDVSHEDPEVKFNWYVDGVEVHNAKTKPREEQYNSTYRVVSVLTVLHQDWLNGKEYKCKVSNKALPAPIEKTISKAKGQPREPQVCTLPPSRDELTKNQVSLSCAVKGFYPSDIAVEWESNGQPENNYKTTPPVLDSDGSFFLVSKLTVDKSRWQQGNVFSCSVMHEALHNHYTQKSLSLSPGK
light: DIQMTQSPSSLSASVGDRVTITCRASQSINSYFNWYQQKPGKAPKLLIYAASGLQSGVPSRFSGSGSGTDFTLTISSLQPEDFATYYCQQSYSPPYTFGQGTNLEIKRTVAAPSVFIFPPSDEQLKSGTASVVCLLNNFYPREAKVQWKVDNALQSGNSQESVTEQDSKDSTYSLSSTLTLSKADYEKHKVYACEVTHQGLSSPVTKSFNRGEC
B7: the “HepG2 Reporter assay, HepG2:FAP-CHO-K1 Co-culture EC50” value in test [5] worked out at 36 pM. Also, the “CCL19 upregulation, HCC1187:CAF Co-culture EC50” value in test [6] came out at 410 pM.

B8: Clone 4.15 (antibody, V domains shown)
VH: QVQLKESGPGLVQPSQTLSLTCTVSGFSLTTYSVHWVRQHSGKSLEWMGRMWTDGDTSYNSAFTSRLSISRDTSKSQVFLKMNSLQTEDTGTYYCARGYWYFDFWGPGTMVTVSS
VL: DVQMTQSPSYLAASPGESVSIRCKASKSISNNLAWYQEKPGKANKLLIHSGSTLQSGTPSRFSGSGSGTDFTLTIRSLEFEDFAVYYCQQYNEYPYTFGAGTKLELK
Consider B8, for which, in test [7], the “4T1 monoculture CCL5 read-out EC50” value worked out at 840 pM and the “4T1 monoculture CCL5 read-out EC50, 4.15 + cross-linking antibody” value came to 36 pM.

B9: Clone 2.5 (antibody, V domains shown)
VH: EVQLVESGGGLVQPGRSLRLSCAASGFTFDDYDIHWVRQAPGKGLEWVSGINWNSITIGYADSVKGRFTISRDNAKNSLYLQMNSLRAEDTALYYCAKDRGSGWRIFDYWGQGTLVTVSS
VL: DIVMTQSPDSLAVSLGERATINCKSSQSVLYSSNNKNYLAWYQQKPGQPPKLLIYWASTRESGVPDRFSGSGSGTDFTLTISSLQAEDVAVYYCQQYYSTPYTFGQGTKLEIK
notes: anti-LTBR mAb (bivalent)
In the case of B9, the “HepG2 reporter assay EC50 (w/o cross-linking antibody)” value in test [1] came out at 240 pM. Further, in test [1], the “HepG2 reporter assay EC50 (with cross-linking antibody)” value worked out at 140 pM. Also, the midpoint of the response in test [2], the EC50, lay at 5400 pM. The results for the Kd in test [3] and in test [4] were 1600 pM and 2100 pM, respectively.

B10: Clone 2.8 (antibody, V domains shown)
VH: QVQLQESGPGLVKPSGTLSLTCAVSGGSISSSNWWSWVRQPPGKGLEWIGDIYHDGTTYYNPSLKSRVTVSVDKSKNQFSLKLSSVTAADTAVYYCARSPSGTTDYFDYWGQGTLVTVSS
VL: DIQMTQSPSSLSASVGDRVNITCRASQSISSYLNWYQQKPGKAPKLLIYAPSSLQSGVPSRFSGGGSGTDFTLTISSLQPEDFATYFCQQSYSTPPTFGPGTKVDIK
notes: anti-LTBR mAb (bivalent)
Turning to B10, the Kd in test [3] is 2600 pM; in test [4], 280 pM.

Source of the values: US20260176336A1 (MESTAG THERAPEUTICS, published 2026).
